We go through 15 molecules from patent US7410949 (Hoffmann-La Roche, dated 2008).

*1 amine or outer side, *2 acyl side, *3 side chain or, on linkers, in order; H or OH if unused. [ ]: non-standard residue; d: D form. Pqa = N-piperazin-1-yl-4(3H)-quinazolinone-3-acetic acid, O=C(Cn1cnc2ccc(N3CCN([*:1])CC3)cc2c1=O)[*:2]; Phe(F5) = N[C@@H](Cc1c(F)c(F)c(F)c(F)c1F)C(=O)O; 1Nal = N[C@@H](Cc1cccc2ccccc12)C(=O)O; 3Pal = N[C@@H](Cc1cccnc1)C(=O)O; Nle = CCCC[C@H](N)C(=O)O Where only a bound is given, the exact number is not on record here.

B1: H-Ile-Lys-Pqa-(NMe)Arg-His-Tyr-Leu-Asn-Leu-Val-Thr-Arg-Gln-Arg-Tyr-NH2 (peptide)
peptide: IKRHYLNLVTRQRY
modifications: N-methyl Arg at PYY position 25 (residue 1 of the second part); Pqa moiety between the two parts; C-terminal amide
B2: H-Ile-Lys-Pqa-Arg-(D)His-Tyr-Leu-Asn-Leu-Val-Thr-Arg-Gln-Arg-Tyr-NH2 (peptide)
peptide: IKRHYLNLVTRQRY
modifications: (D)His at PYY position 26 (residue 2 of the second part); Pqa moiety between the two parts; C-terminal amide
B3: H-Ile-Lys-Pqa-Arg-His-Tyr-Leu-Asn-(NMe)Leu-Val-Thr-Arg-Gln-Arg-Tyr-NH2 (peptide)
peptide: IKRHYLNLVTRQRY
modifications: N-methyl Leu at PYY position 30 (residue 6 of the second part); Pqa moiety between the two parts; C-terminal amide
B4: H-Ile-Lys-Pqa-Arg-His-Tyr-Leu-Asn-Leu-Val-Thr-Arg-Gln-Arg-(NMe)Tyr-NH2 (peptide)
peptide: IKRHYLNLVTRQRY
modifications: N-methyl Tyr at PYY position 36 (residue 12 of the second part); Pqa moiety between the two parts; C-terminal amide
B5: Ac-Ile-Nle-Pqa-Arg-His-(2,3,4,5,6 Penta fluoroPhe)-Leu-Asn-Leu-Val-Thr-Arg-Gln-Arg-Tyr-NH2 (peptide)
peptide: Ac-I[Nle][Pqa]RH[Phe(F5)]LNLVTRQRY-NH2
SMILES: CCCC[C@H](NC(=O)[C@@H](NC(C)=O)[C@@H](C)CC)C(=O)N1CCN(c2ccc3ncn(CC(=O)N[C@@H](CCCNC(=N)N)C(=O)N[C@@H](Cc4c[nH]cn4)C(=O)N[C@@H](Cc4c(F)c(F)c(F)c(F)c4F)C(=O)N[C@@H](CC(C)C)C(=O)N[C@@H](CC(N)=O)C(=O)N[C@@H](CC(C)C)C(=O)N[C@H](C(=O)N[C@H](C(=O)N[C@@H](CCCNC(=N)N)C(=O)N[C@@H](CCC(N)=O)C(=O)N[C@@H](CCCNC(=N)N)C(=O)N[C@@H](Cc4ccc(O)cc4)C(N)=O)[C@@H](C)O)C(C)C)c(=O)c3c2)CC1
B6: H-Ile-Lys-Pqa-Arg-His-(D)Tyr-Leu-Asn-Leu-Val-Thr-Arg-Gln-Arg-Tyr-NH2 (peptide)
peptide: IKRHYLNLVTRQRY
modifications: (D)Tyr at PYY position 27 (residue 3 of the second part); Pqa moiety between the two parts; C-terminal amide
B7: H-NMeIle-Lys-Pqa-Arg-His-Tyr-Leu-Asn-Leu-Val-Thr-Arg-Gln-Arg-Tyr-NH2 (peptide)
peptide: IKRHYLNLVTRQRY
modifications: N-methyl Ile at PYY position 3 (residue 1 of the first part); Pqa moiety between the two parts; C-terminal amide
B8: Ac-Ile-Nle-Pqa-Arg-(3-Pal)-Tyr-Leu-Asn-Leu-Val-Thr-Arg-Gln-Arg-Tyr-NH2 (peptide)
peptide: Ac-I[Nle][Pqa]R[3Pal]YLNLVTRQRY-NH2
SMILES: CCCC[C@H](NC(=O)[C@@H](NC(C)=O)[C@@H](C)CC)C(=O)N1CCN(c2ccc3ncn(CC(=O)N[C@@H](CCCNC(=N)N)C(=O)N[C@@H](Cc4cccnc4)C(=O)N[C@@H](Cc4ccc(O)cc4)C(=O)N[C@@H](CC(C)C)C(=O)N[C@@H](CC(N)=O)C(=O)N[C@@H](CC(C)C)C(=O)N[C@H](C(=O)N[C@H](C(=O)N[C@@H](CCCNC(=N)N)C(=O)N[C@@H](CCC(N)=O)C(=O)N[C@@H](CCCNC(=N)N)C(=O)N[C@@H](Cc4ccc(O)cc4)C(N)=O)[C@@H](C)O)C(C)C)c(=O)c3c2)CC1
B9: H-Ile-Lys-Pqa-Arg-His-Tyr-Leu-Asn-Leu-Val-(NMe)Thr-Arg-Gln-Arg-Tyr-NH2 (peptide)
peptide: IKRHYLNLVTRQRY
modifications: N-methyl Thr at PYY position 32 (residue 8 of the second part); Pqa moiety between the two parts; C-terminal amide
B10: Ac-Ile-Lys-Pqa-Arg-His-Tyr-Leu-Asn-Leu-Val-Thr-Arg-Gln-Arg-Tyr-NH2 (peptide)
peptide: IKRHYLNLVTRQRY
modifications: N-terminal acetyl; Pqa moiety between the two parts; C-terminal amide
B11: H-Ile-Lys-Pqa-Arg-His-(NMe)Tyr-Leu-Asn-Leu-Val-Thr-Arg-Gln-Arg-Tyr-NH2 (peptide)
peptide: IKRHYLNLVTRQRY
modifications: N-methyl Tyr at PYY position 27 (residue 3 of the second part); Pqa moiety between the two parts; C-terminal amide
B12: Ac-Ile-Nle-Pqa-Arg-His-(1)Nal-Leu-Asn-Leu-Val-Thr-Arg-Gln-Arg-Tyr-NH2 (peptide)
peptide: Ac-I[Nle][Pqa]RH[1Nal]LNLVTRQRY-NH2
SMILES: CCCC[C@H](NC(=O)[C@@H](NC(C)=O)[C@@H](C)CC)C(=O)N1CCN(c2ccc3ncn(CC(=O)N[C@@H](CCCNC(=N)N)C(=O)N[C@@H](Cc4c[nH]cn4)C(=O)N[C@@H](Cc4cccc5ccccc45)C(=O)N[C@@H](CC(C)C)C(=O)N[C@@H](CC(N)=O)C(=O)N[C@@H](CC(C)C)C(=O)N[C@H](C(=O)N[C@H](C(=O)N[C@@H](CCCNC(=N)N)C(=O)N[C@@H](CCC(N)=O)C(=O)N[C@@H](CCCNC(=N)N)C(=O)N[C@@H](Cc4ccc(O)cc4)C(N)=O)[C@@H](C)O)C(C)C)c(=O)c3c2)CC1
B13: H-(D) Ile-Lys-Pqa-Arg-His-Tyr-Leu-Asn-Leu-Val-Thr-Arg-Gln-Arg-Tyr-NH2 (peptide)
peptide: IKRHYLNLVTRQRY
modifications: (D)Ile at PYY position 3 (residue 1 of the first part); Pqa moiety between the two parts; C-terminal amide
B14: H-Ile-Lys-Pqa-Arg-His-Tyr-Leu-Asn-Leu-Val-Thr-(NMe)Arg-Gln-Arg-Tyr-NH2 (peptide)
peptide: IKRHYLNLVTRQRY
modifications: N-methyl Arg at PYY position 33 (residue 9 of the second part); Pqa moiety between the two parts; C-terminal amide
B15: H-Ile-Lys-Pqa-(D)Arg-His-Tyr-Leu-Asn-Leu-Val-Thr-Arg-Gln-Arg-Tyr-NH2 (peptide)
peptide: IKRHYLNLVTRQRY
modifications: (D)Arg at PYY position 25 (residue 1 of the second part); Pqa moiety between the two parts; C-terminal amide

Chain of Y1R (P25929 whole entry): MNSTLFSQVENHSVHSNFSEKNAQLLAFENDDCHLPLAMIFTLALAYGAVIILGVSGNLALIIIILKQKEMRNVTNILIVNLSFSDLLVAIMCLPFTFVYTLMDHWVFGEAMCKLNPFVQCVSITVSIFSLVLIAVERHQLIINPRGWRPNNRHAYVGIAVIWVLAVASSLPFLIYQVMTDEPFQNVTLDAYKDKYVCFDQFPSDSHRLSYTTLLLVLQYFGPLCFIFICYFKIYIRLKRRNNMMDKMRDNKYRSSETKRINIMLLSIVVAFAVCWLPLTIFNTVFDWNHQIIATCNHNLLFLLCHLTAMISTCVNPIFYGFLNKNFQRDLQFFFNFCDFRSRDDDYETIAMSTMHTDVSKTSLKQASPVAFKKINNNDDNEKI

The target of the first assay is Y4R. As to the kind of experiment: cell-based or functional assay.
As to B1, the “Y4R EC50(nM) FLIPR” value is > 5000 nM. Consider B2, for which the “Y4R EC50(nM) FLIPR” value was > 5000 nM. On the same count and under the same terms, next, B3: > 5000 nM; B4: > 5000 nM; B5: > 5000 nM. The same measure, in the same setting: the same measure for B6: > 5000 nM; for B7: > 5000 nM. On the same count and under the same terms, the same measure for B8: > 5000 nM; for B9: > 5000 nM.

With B10, the “Y4R EC50(nM) FLIPR” value was > 5000 nM. The same measure, in the same setting: the same measure for B11: > 5000 nM; for B12: > 5000 nM. On the same count and under the same terms, the same measure for B13: > 5000 nM; for B14: > 5000 nM; for B15: > 5000 nM.

The next assay has as its target Y1R. As to the kind of experiment: cell-based or functional assay.
Turning to B3, the “Y1R EC50(nM) FLIPR” value was > 5000 nM. Still for that read-out and setting: the same measure for B4: > 5000 nM.

Regarding B9, the “Y1R EC50(nM) FLIPR” value was > 5000 nM. Still for that read-out and setting: next, B11: > 5000 nM. Consider B13, for which the “Y1R EC50(nM) FLIPR” value is > 5000 nM. The same measure, in the same setting: the same measure for B14: > 5000 nM.
